# Laboratory results as given in patent US20250283037A1 (JUNO THERAPEUTICS, published 2025).
# Key:
# [1] = biological target: T1, Strep-tactin M2 (streptavidin mutein) immobilised on the chromatography resin (Streptomyces avidinii, UniProt P22629 38-163); assay: loading of the tagged Fab on Strep-tactin Sephadex G50, 20 min at 4 C
# T1 construct: also called immobilized Strep-tactin; STREP-TACTIN-coated resin
# [2] = biological target: T2, CD4 on the surface of human T cells (human, UniProt P01730 26-458); assay: affinity column selection of cells from apheresis by the CD4 marker
# T2 construct: whole, on cells; also called selection marker CD4
binder,measurement,setting,value
"anti-CD4 Fab fragment m13B8.2 with Twin Strep-Tag (Fab, V domains shown) VH: QVQLKQSGPGLVQPSQSLSITCTVSGFSLTTFGVHWVRQSPGKGLEWLGVIWASGITDYNVPFMSRLSITKDNSKSQVFFKLNSLQPDDTAIYYCAKNDPGTGFAYWGQGTLVTVSA VL: DIQMTQSPASLSASVGETVTFTCRASEMIYSYLAWYQQKQGKSPQLLVHDAKTLAEGVPSRFSGGGSGTQFSLKINTLQPEDFGTYYCQAHYGNPPTFGGGTKLEIKR",binding result,[1],binds
same,binding result,[2],binds
